This is an account of results in patent US20240270826A1 (NATIONAL RESEARCH COUNCIL OF CANADA, published 2024).

Several values for one entry are separate records, joined by “and”; a condition that tells them apart may be missing. Equal values may be shown once.

Assay [1] concerns the target Human SARS-CoV-2_Wuhan S (SmT1) (SARS-CoV-2 (Wuhan), UniProt P0DTC2 14-1208). Nature of the assay: flow cytometry SVNA: VHH-Fc inhibits S binding to ACE2 on Vero E6 cells.
In the next assay the target is Human SARS-CoV S (SARS-CoV, UniProt P59594 14-1190). The description is as above.
The target of assay [2] is S1-Fc (SARS-CoV-2 S1 aa16-685, Wuhan, human IgG1 Fc) (SARS-CoV-2 (Wuhan); human, UniProt P0DTC2 16-685).
In assay [3] the target is T1, Human SARS-CoV-2_Wuhan S (SmT1) (SARS-CoV-2 (Wuhan), UniProt P0DTC2 14-1208). Nature of the assay: flow cytometry SVNA, VHH vs biotin-S binding to Vero E6 ACE2.
The target in the next assay is SARS-CoV spike (S) (SARS-CoV, UniProt P59594 14-1195). Nature of the assay: ELISA.
For assay [4], the target named is T2, SARS-CoV-2 S2 (aa686-1208) (Wuhan) (SARS-CoV-2 Wuhan, UniProt P0DTC2 686-1208).
T2 construct: NRC; FLAG, 6xHis tags
Nature of the assay: ELISA.

For assay [5], the target named is SARS-CoV-2 S1-NTD (aa16-305) (SARS-CoV-2 Wuhan, UniProt P0DTC2 16-305). Put plainly: ELISA.
Assay [6] deals with T3, SARS-CoV-2 S on CHO-S cells (SARS-CoV-2, UniProt P0DTC2 14-1273).
T3 construct: whole, on cells
Put plainly: flow cytometry, CHO-S cells.

The target of assay [7] is T4, SARS-CoV-2 spike protein S on live virus, Wuhan (strain SARS-CoV-2/Canada/VIDO-01/2020) (SARS-CoV-2 (Wuhan), UniProt P0DTC2 14-1273). Put plainly: cell-based or functional assay.
Assay [8] addresses T4, SARS-CoV-2 spike protein S on live …. Nature of the assay: cell-based or functional assay. The source holds these as a separate data set.
Assay [9] concerns the target T1, Human SARS-CoV-2_Wuhan S (SmT1). Nature of the assay: flow cytometry SVNA, VHH-Fc vs biotin-S binding to Vero E6 ACE2.
Assay [10] concerns the target T5, SARS-CoV-2 S1 (aa16-685) (Wuhan) (SARS-CoV-2 Wuhan, UniProt P0DTC2 16-685).
T5 construct: NRC; FLAG, 6xHis tags
Put plainly: ELISA.

B1: NRCoV2-MRed04 VHH-Fc (Fc fusion)
chain: EVQLVESGGGLVQPGRSLRLSCAASGNSFSISTMGWFRQAPGKERELVASIWSDTTTSYADSVKGRFTISTDNTRTKVYLQMSSLNPEDTAVYYCAADRGFVVRGQYDYWGQGTQVTVSS
notes: bivalent VHH-Fc
For the molecule B1, the IC50 in assay [1] was 5 nM; with Human SARS-CoV S it was 24.6 nM.

B2: NRCoV2-1d VHH (VHH)
VHH: EVQLVESGGGSVQPGGSLRLSCAASGSTLDYYAIGWFRQAPGKEREWVSSVSSSDGNTLYADSVKGRFTISRDNAKNTVYLQMNSLKAEDTAVYVCAADYSMRPFAVGRWHRDYEYWGQGTQVTVSS
As to B2, the EC50 in assay [2] is 1.1 nM and 1.3 nM. For the same molecule, in assay [3], the IC50 amounted to 8.6 nM, the IC99 was found to be 40.8 nM and the Imax % amounted to 72%.

B3: NRCoV2-17 VHH-Fc (Fc fusion)
chain: EVQLQQSGGGLVQTGGSLRLSCAAAGSPFSQLAMSWYRQISGKERAWVASISPTGNRSYSKIAKGRFTISRDNAKNTVTLQMTSLKPEDTAAYICQAANVNGGDYWGQGTQVTVSS
notes: bivalent VHH-Fc
As for B3, the binding result (in the assay with SARS-CoV spike (S); in [4]; in assay [5]) was “no binding (tested: 13 nM)” throughout. The molecule also displayed a Bmax in assay [6] of 19000. Further, in assay [6], a half-maximal effect (EC50) was put at 0.4 nM.

B4: NRCoV2-20 VHH-Fc (Fc fusion)
chain: EVQLQQSGGGLVQPGGSLRLSCAASGRTFSNYVVGWFRQAPQAPGKDHEFVAVISGSDTETYYADSVKGRFTISRDNAKNTVYLQMNSLKPEDTAVYYCAADRGMSYYYTRATEYYYWGQGTQVTVSS
notes: bivalent VHH-Fc
In the case of B4, the half-maximal inhibitory concentration (IC50) is 6.5 nM in assay [1] and 10.3 nM with Human SARS-CoV S.

B5: NRCoV2-12 VHH-Fc (Fc fusion)
chain: EVQLQQSGGGLVQAGGSLRLSCAASGRTFRNYVMGWFRQAPQAPGKDHEFVAAISWGGTEIYYADSVKGRFTISRDNAKNTVYLQMNSLKPEDTAVYYCAADRGLSYYYTRTTEYNYWGQGTQVTVSS
notes: bivalent VHH-Fc
With B5, the IC50 in assay [1] was 3.5 nM; in the assay with Human SARS-CoV S, 3.1 nM.

B6: NRCoV2-11 VHH-Fc (Fc fusion)
chain: EVQLVSSGGGLVQPGGSLRLSCAASGSSLDSYSVSWFRQAPGKEREWISFISRYYSSTYYTDSVKGRFTTSRDGDQKTVHLQMNSLKPEDTAVYYCAARSRDFSSPFSATDTYTSWGQGTQVTVSS
notes: bivalent VHH-Fc
Regarding B6, the IC50 was found to be 3.2 nM in assay [1] and 7.7 nM with Human SARS-CoV S.

B7: NRCoV2-11 VHH (VHH)
VHH: EVQLVSSGGGLVQPGGSLRLSCAASGSSLDSYSVSWFRQAPGKEREWISFISRYYSSTYYTDSVKGRFTTSRDGDQKTVHLQMNSLKPEDTAVYYCAARSRDFSSPFSATDTYTSWGQGTQVTVSS
B7 displayed an EC50 in [2] of 0.2 nM.

B8: NRCoV2-SR01 VHH-Fc (Fc fusion)
chain: EVQLVQSGGGSVQAGGSLRLSCVASGFTFDNYAIGWFRQAPGKEREGVSCISGNGGVTIYADSVKGRFTISRDNAKNLVYLQMNSLKPEDTAVYYCAATGIRSTWSVYGCSRLAGPYDYWGQGTQVTVSS
notes: bivalent VHH-Fc
On to B8, for which, in [7], the MN100 was 6.25 nM. The “LVNA IC50” value in assay [8] came out at 9.42 nM. In assay [9], the IC50 is 6.6 nM, the IC99 turned out to be 56.9 nM and the Imax % was determined as 59%.

B9: NRCoV2-SR01 VHH-Fc (Fc fusion)
chain: EVQLVQSGGGSVQAGGSLRLSCVASGFTFDNYAIGWFRQAPGKEREGVSCISGNGGVTIYADSVKGRFTISRDNAKNLVYLQMNSLKPEDTAVYYCAATGIRSTWSVYGCSRLAGPYDYWGQGTQVTVSS
notes: bivalent VHH-Fc
In the case of B9, the figures for the IC50 (in [1]; with Human SARS-CoV S) were 4.2 nM and 5.1 nM, respectively.

B10: NRCoV2-07 VHH-Fc (Fc fusion)
chain: QVQLVQSGGGLVQPGGSLRLSCAASGVTLDYYAIGWFRQAPGKEREAVSCISSNGRRNHYVASVRGRFTISRDNAKSTVYLQMNSLKPEDTAVYYCAAVQDVHGDNYYCTSPNEYNVWGQGTQVTVSS
notes: bivalent VHH-Fc
Consider B10, for which the IC50 in assay [1] stood at 4.7 nM; with Human SARS-CoV S it was 4.2 nM.

B11: NRCoV2-07 VHH (VHH)
VHH: QVQLVQSGGGLVQPGGSLRLSCAASGVTLDYYAIGWFRQAPGKEREAVSCISSNGRRNHYVASVRGRFTISRDNAKSTVYLQMNSLKPEDTAVYYCAAVQDVHGDNYYCTSPNEYNVWGQGTQVTVSS
Regarding B11, the EC50 in [2] is 1.1 nM and 1 nM. In [3], this molecule returned an IC50 of 7.5 nM, an IC99 of 65.3 nM and an Imax % of 86%.

B12: NRCoV2-MRed11 VHH-Fc (Fc fusion)
chain: EVQLVESGGGLVQAGGSLRLSCAASGFTFSSYAMSWHRQAPGKGLEWVSAINSGGGSTSYADSVKGRFAISRDNAKNTLYLQMNSLKPEDTAVYYCATTISDGSSWSTKSYRGQGTQVTVSS
notes: bivalent VHH-Fc
On to B12, for which the binding result (in the assay with SARS-CoV spike (S); in [10]; in assay [5]) was “no binding (tested: 13 nM)” throughout. In assay [6], this molecule had a Bmax of 3250. This molecule also yielded an EC50 in assay [6] of 2.9 nM.

B13: NRCoV2-15 VHH-Fc (Fc fusion)
chain: EVQLVSSGGGLVEAGGSLRLSCIASGSTSGRNTMGWFRQAPGKQREWVAIVSTSGATNYAGSVKGRFTLSRDNAKNAVYLQMNNLKPEDTAVYYCYAAYGGGGDYWGQGTQVTVSS
notes: bivalent VHH-Fc
B13: the binding result (with SARS-CoV spike (S); in assay [4]; in [5]) was “no binding (tested: 13 nM)” each time. Also, in assay [6], the Bmax stood at 21100. In addition, a half-maximal response in assay [6] (EC50) required 0.8 nM.

B14: NRCoV2-02 VHH (VHH)
VHH: EVQLVESGGGLVQAGGSLRLSCAASGFTFSNYAMNWVRQAPGKGLEWVSGISGRGDDTRYADSVKGRFTISRDNAKNTLFLQMRSLRPEDTGVYRCTKGPDLYYFGSGYSDRGQGTQVTVSS
In the case of B14, the response in assay [2] was half-maximal at 0.2 nM (EC50). In addition, the MN100 in [7] turned out to be 1.25 nM. Moreover, in assay [3], the IC50 came to 5.1 nM, the IC99 is 15.5 nM and the Imax % was 100%.

B15: NRCoV2-02 VHH-Fc (Fc fusion)
chain: EVQLVESGGGLVQAGGSLRLSCAASGFTFSNYAMNWVRQAPGKGLEWVSGISGRGDDTRYADSVKGRFTISRDNAKNTLFLQMRSLRPEDTGVYRCTKGPDLYYFGSGYSDRGQGTQVTVSS
notes: bivalent VHH-Fc
Take B15: the MN100 in [7] was not above 0.01 nM. Further, the “LVNA IC50” value in [8] stood at 0.12 nM. In assay [9], the IC50 came out at 5 nM, the IC99 was 30 nM and the Imax % came out at 94%.

B16: NRCoV2-SR02 VHH-Fc (Fc fusion)
chain: EVQLVDSGGGLVQAGGSLRLSCTASEFTLNYYSIGWFRQSPGKEREGVSCIRYSGGGIDYADSVKGRFTISRDNAKNTVYLTMNSLKPEDTAVYYCAADRLYSRACPTAGGRNYWGQGTQVTVSS
notes: bivalent VHH-Fc
B16 yielded an MN100 in assay [7] of 6.25 nM. In addition, the “LVNA IC50” value in assay [8] worked out at 14.1 nM. Also, in assay [9], the IC50 turned out to be 5.8 nM, the IC99 worked out at 49.8 nM and the Imax % turned out to be 53%.

B17: NRCoV2-18 VHH-Fc (Fc fusion)
chain: EVQLVESGGGLVQAGGSLRLSCVASGITISGYNMAWWRQTRGKQTERVAFINSGGSTTYSDSVKGRFTISRDNGKNTAYLQMNSLNAEDTADYFCSLHTSHDYWGQGTQVTVSS
notes: bivalent VHH-Fc
On to B17, for which the IC50 in [1] was 9.1 nM; with Human SARS-CoV S it was 12.7 nM.

B18: NRCoV2-SR13 VHH-Fc (Fc fusion)
chain: EVQLVESGGGLVTTGGSLRLSCATSGSRFGSKHMAWYRQAPGKQRDLVAAISSGGSTHYGSSVKGRFTISRDNAKSTVYLQMNSLNPEDTAVFYCNMGGWDYRSNTYIPGSRSDYWGQGTQVTVSS
notes: bivalent VHH-Fc
For the molecule B18, the IC50 in [1] was determined as 7.7 nM; with Human SARS-CoV S, 15 nM.
